Reference: patent publication US8003357B2, “Acidophilic enzymes” (Helmholtz-Zentrum Fuer Infektionsforschung GmbH, priority 2005, dated 2011)

Key:
Experiment in all cases: EstFA hydrolysis of p-nitrophenol esters and triglycerides
Format in all cases: biochemical, Ferroplasma acidiphilum
Settings in all cases: other: EstFA expressed in E. coli
[1] = substrate: CC(=O)Oc1ccc([N+](=O)[O-])cc1
Protocol: (§1) Hydrolysis of p-nitrophenol propionate was observed spectrophotometrically at 405 nm, optionally in and 96-well plates. The substrate specificity of acidic esterase EstFA obtainable from Ferroplasma acidiphilum was characterized using the heterologously expressed EstFA of Example 6 (expressed in E. coli), using p-nitrophenol esters and triglycerides as summarised in following Table IV:
(§2) The above substrate specificities were tested in 96-well plates, using 100 mM citrate buffer (pH 2.0) in the presence of 5 μg pure EstFA. For the substrate, the concentrations between 10 nM and 10 mM were chosen. Progress of the reaction was followed by spectrophotometry using p-nitrophenol propionate as an indicator. The reaction was stopped after 10 hours by adjusting the pH to 8.0 by adding sodium hydroxide from a 100 mM stock solution and phenol red (0.8 mM) as a pH indicator. Activities and selectivities were examined according to Mam Fai Lui et al. (2001). Ester hydrolysis of enantiomerically pure esters was measured colorimetrically in 5.0 mM EPPS buffer (N-(2-hydroxyethyl) piperazine-N′-(3′-propanesulfonic acid) at pH 8.0 and phenol red after termination of the reaction.

[2] = substrate: CCC(=O)Oc1ccc([N+](=O)[O-])cc1
Protocol: as §1, §2

[3] = substrate: CCCC(=O)OCC(COC(=O)CCC)OC(=O)CCC
Protocol: as §1, §2

[4] = substrate: CCCC(=O)Oc1ccc([N+](=O)[O-])cc1
Protocol: as §1, §2

[5] = substrate: CCCCCCCC(=O)Oc1ccc([N+](=O)[O-])cc1
Protocol: as §1, §2

[6] = substrate: CCCCCCCCCC(=O)Oc1ccc([N+](=O)[O-])cc1
Protocol: as §1, §2

[7] = substrate: CCCCCCCCCCCC(=O)Oc1ccc([N+](=O)[O-])cc1
Protocol: as §1, §2

B1: EstFA (Ferroplasma acidiphilum) (protein)
chain: MHLMNMVDPDFNSLIELSKSAGDMTKIEPAMLRNFLDESSLSSRGAPVEIKEIKDYKIKLDGRTLNARMYDDNNAKSAILYYHGGGFLFGNIETYDNYCRFLAKESGVKIISIEYRLAPEHKFPDAFNDAYDSFHYIAKKKKDFGIEGRIGVAGDSAGANLAAALCLKCRDGKTEMPAVQVLFYPSLAPDNFSRSFIEYSDNYVLTGKMIRYFGNMYSKNMQDLINPYFSPLVADDFSNLPPAIMVTNEYDPLRDPEETYVKKLREAGVRAVGIRGIGMIHGSATDFEVSDGARNIVKMVARIIPDYL
Work on B1 yielded a Km [1] of 0.39 ± 0.08 mg/mL, a kcat [1] of 860 ± 21 s⁻¹ and a Km [2] of 0.20 ± 0.04 mg/mL. For the same protein, the kcat [2] was 1190 ± 25 s⁻¹, the Km [3] was 1.75 ± 0.14 mg/mL and the kcat [3] was 1890 ± 27 s⁻¹. The Km [4] was 1.75 ± 0.12 mg/mL, the kcat [4] was 2300 ± 30 s⁻¹ and the Km [5] was 1.68 ± 0.12 mg/mL. It also gave a kcat [5] of 239 ± 12 s⁻¹, a Km [6] of 4.30 ± 0.42 mg/mL and a kcat [6] of 179 ± 4 s⁻¹. For the same protein, the Km [7] was 4.41 ± 0.38 mg/mL and the kcat [7] was 120 ± 4 s⁻¹.
